Assay in all cases: cell-based or functional assay
Assay [1] addresses T1, human GIP receptor (human, UniProt P48546 22-466).
T1 sequence (looked up): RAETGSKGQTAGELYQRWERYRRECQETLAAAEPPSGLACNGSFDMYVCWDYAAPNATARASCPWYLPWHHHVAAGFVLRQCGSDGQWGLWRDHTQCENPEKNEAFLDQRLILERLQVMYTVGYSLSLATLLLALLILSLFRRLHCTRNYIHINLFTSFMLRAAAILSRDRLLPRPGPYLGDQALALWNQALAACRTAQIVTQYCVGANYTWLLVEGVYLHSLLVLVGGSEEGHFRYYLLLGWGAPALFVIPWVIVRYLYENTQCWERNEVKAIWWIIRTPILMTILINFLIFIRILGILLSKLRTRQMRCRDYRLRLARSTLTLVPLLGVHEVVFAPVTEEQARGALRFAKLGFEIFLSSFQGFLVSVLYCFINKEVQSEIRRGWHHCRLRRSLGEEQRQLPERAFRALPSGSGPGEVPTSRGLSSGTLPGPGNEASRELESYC

The target in assay [2] is human GCG receptor (human, UniProt P47871 26-477).
human GCG receptor, sequence (P47871 26-477): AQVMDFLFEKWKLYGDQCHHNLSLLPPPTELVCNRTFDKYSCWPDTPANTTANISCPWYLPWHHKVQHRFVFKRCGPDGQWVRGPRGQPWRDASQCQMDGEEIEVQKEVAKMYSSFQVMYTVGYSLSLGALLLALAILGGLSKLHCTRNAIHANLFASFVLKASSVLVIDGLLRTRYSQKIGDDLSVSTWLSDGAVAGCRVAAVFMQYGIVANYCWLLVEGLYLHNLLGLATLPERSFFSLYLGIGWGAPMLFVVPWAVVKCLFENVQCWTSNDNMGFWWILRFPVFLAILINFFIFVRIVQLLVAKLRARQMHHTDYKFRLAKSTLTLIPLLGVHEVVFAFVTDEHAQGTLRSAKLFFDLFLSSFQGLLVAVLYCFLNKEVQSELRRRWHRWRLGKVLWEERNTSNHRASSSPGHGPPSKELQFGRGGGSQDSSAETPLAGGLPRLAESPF
Assay [3] deals with human GLP-1 receptor (human, UniProt P43220 24-463).

Data on ten molecules can be found in US20250129135A1, “Multi-Agonist and Use Thereof” (priority 2021, published 2025).

B1: Compound 34 (peptide)
peptide: YXQGTXTSDYSIXLDKKAQXAFIEYLLETGPSSGQPPXS
modifications: Aib at 2; αMeF(2F) at 6; αMeL at 13; Lys 17 side chain AEEAc-AEEAc-γGlu-CO(CH2)18COOH; Aib at 20; Ac3c at 38; C-terminal amide (NH2)
For B1, in assay [1], the “cAMP EC50, CHO cells stably overexpressing human GIP R” value was 0.005 nM and the “cAMP Rel. A (%) against human GIP, human GIP R cells” value (“cAMP Rel. A (%) against human GIP” below) amounted to 3620%. Further, in assay [2], the “cAMP EC50, HEK-293 cells stably overexpressing human GCG R” value is 0.038 nM and the “cAMP Rel. A (%) against human GCG, human GCG R cells” value (shortened to “cAMP Rel. A (%) against human GCG”) was determined as 150%. In assay [3], the “cAMP EC50, HEK-293 cells stably overexpressing human GLP-1 R” value was 0.023 nM and the “cAMP Rel. A (%) against human GLP-1 (7-37), human GLP-1 R cells” value (“cAMP Rel. A (%) … human GLP-1 R cells” for short) was 191%.

B2: Compound 8 (peptide)
peptide: YXQGTXTSDYSIXLDKKAQXAFIEYLLETGPSSGQPPPS
modifications: Aib at 2; αMeF at 6; αMeL at 13; Lys 17 side chain AEEAc-AEEAc-γGlu-CO(CH2)18COOH; Aib at 20; C-terminal amide (NH2)
Consider B2, for which the “cAMP Rel. A (%) against human GIP” value in assay [1] was determined as 1510%. Moreover, in assay [2], the “cAMP EC50, HEK-293 cells stably overexpressing human GCG R” value is 0.071 nM and the “cAMP Rel. A (%) against human GCG” value worked out at 80.3%. Further, the “cAMP Rel. A (%) … human GLP-1 R cells” value in assay [3] came out at 152%.

B3: Compound 35 (peptide)
peptide: YXQGTXTSDYSIXLDKKAQXAFIEYLLETGPSSGQPPXS
modifications: Aib at 2; αMeF at 6; αMeL at 13; Lys 17 side chain AEEAc-AEEAc-γGlu-CO(CH2)18COOH; Aib at 20; Ac3c at 38; C-terminal amide (NH2)
For the molecule B3, in assay [1], the “cAMP EC50, CHO cells stably overexpressing human GIP R” value was 0.008 nM and the “cAMP Rel. A (%) against human GIP” value was found to be 2260%. In addition, in assay [2], the “cAMP EC50, HEK-293 cells stably overexpressing human GCG R” value was determined as 0.087 nM and the “cAMP Rel. A (%) against human GCG” value amounted to 65.5%. Further, in assay [3], the “cAMP EC50, HEK-293 cells stably overexpressing human GLP-1 R” value was 0.022 nM and the “cAMP Rel. A (%) … human GLP-1 R cells” value was 200%.

B4: Compound 5 (peptide)
peptide: YXQGTXTSDYSIFLDKKAQXAFIEFLLEGGPSSGAPPXS
modifications: Aib at 2; αMeF(2F) at 6; Lys 17 side chain AEEAc-AEEAc-γGlu-CO(CH2)18COOH; Aib at 20; Ac3c at 38; C-terminal amide (NH2)
Take B4: in assay [1], the “cAMP Rel. A (%) against human GIP” value came to 369%. In addition, in assay [2], the “cAMP Rel. A (%) against human GCG” value worked out at 81.4%. In assay [3], the “cAMP EC50, HEK-293 cells stably overexpressing human GLP-1 R” value came to 0.022 nM and the “cAMP Rel. A (%) … human GLP-1 R cells” value was found to be 200%.

B5: Compound 9 (peptide)
peptide: YXQGTXTSDYSIFLDKKAQXAFIEFLLETGPSSGAPPXS
modifications: Aib at 2; αMeF(2F) at 6; Lys 17 side chain AEEAc-AEEAc-γGlu-CO(CH2)18COOH; Aib at 20; Ac3c at 38; C-terminal amide (NH2)
On to B5, for which, in assay [1], the “cAMP Rel. A (%) against human GIP” value was 385%. In assay [2], the “cAMP Rel. A (%) against human GCG” value turned out to be 91.9%. Moreover, in assay [3], the “cAMP EC50, HEK-293 cells stably overexpressing human GLP-1 R” value stood at 0.017 nM and the “cAMP Rel. A (%) … human GLP-1 R cells” value worked out at 259%.

B6: Compound 6 (peptide)
peptide: YXHGTXTSDYSIXLDKKAQXAFIEYLLEXHPSSGQPPPS
modifications: Aib at 2; αMeF(2F) at 6; αMeL at 13; Lys 17 side chain AEEAc-AEEAc-γGlu-CO(CH2)18COOH; Aib at 20; Aib at 29; C-terminal amide (NH2)
For B6, in assay [1], the “cAMP EC50, CHO cells stably overexpressing human GIP R” value was 0.014 nM and the “cAMP Rel. A (%) against human GIP” value was 1290%. In assay [2], the “cAMP EC50, HEK-293 cells stably overexpressing human GCG R” value stood at 0.058 nM and the “cAMP Rel. A (%) against human GCG” value came out at 98.3%. Further, in assay [3], the “cAMP EC50, HEK-293 cells stably overexpressing human GLP-1 R” value came out at 0.02 nM and the “cAMP Rel. A (%) … human GLP-1 R cells” value was found to be 220%.

B7: Compound 12 (peptide)
peptide: YXQGTXTSDYSIFLDKKAQXAFIEFLLETGPSSGAPPPS
modifications: Aib at 2; αMeF at 6; Lys 17 side chain AEEAc-AEEAc-γGlu-CO(CH2)18COOH; Aib at 20; C-terminal amide (NH2)
On to B7, for which the “cAMP Rel. A (%) against human GIP” value in assay [1] came out at 221%. In assay [2], the “cAMP Rel. A (%) against human GCG” value was 13.7%. Further, in assay [3], the “cAMP EC50, HEK-293 cells stably overexpressing human GLP-1 R” value was 0.014 nM and the “cAMP Rel. A (%) … human GLP-1 R cells” value turned out to be 314%.

B8: Compound 7 (peptide)
peptide: YXQGTXTSDYSIXLDKKAQXAFIEYLLETGPSSGXPPPS
modifications: Aib at 2; αMeF at 6; αMeL at 13; Lys 17 side chain AEEAc-AEEAc-γGlu-CO(CH2)18COOH; Aib at 20; Aib at 35; C-terminal amide (NH2)
Consider B8, for which, in assay [1], the “cAMP EC50, CHO cells stably overexpressing human GIP R” value turned out to be 0.013 nM and the “cAMP Rel. A (%) against human GIP” value was determined as 1390%. In assay [2], the “cAMP EC50, HEK-293 cells stably overexpressing human GCG R” value was found to be 0.058 nM and the “cAMP Rel. A (%) against human GCG” value was found to be 98.3%. In addition, in assay [3], the “cAMP EC50, HEK-293 cells stably overexpressing human GLP-1 R” value was determined as 0.01 nM and the “cAMP Rel. A (%) … human GLP-1 R cells” value worked out at 440%.

B9: Compound 4 (peptide)
peptide: YXQGTXTSDYSIFLDKKAQXAFIEYLLEGGPSSGAPPXS
modifications: Aib at 2; αMeF(2F) at 6; Lys 17 side chain AEEAc-AEEAc-γGlu-CO(CH2)18COOH; Aib at 20; Ac3c at 38; C-terminal amide (NH2)
For the molecule B9, in assay [1], the “cAMP EC50, CHO cells stably overexpressing human GIP R” value worked out at 0.057 nM and the “cAMP Rel. A (%) against human GIP” value is 318%. Further, in assay [2], the “cAMP EC50, HEK-293 cells stably overexpressing human GCG R” value worked out at 0.071 nM and the “cAMP Rel. A (%) against human GCG” value was found to be 80.3%. In addition, the “cAMP Rel. A (%) … human GLP-1 R cells” value in assay [3] was found to be 107%.

B10: Compound 13 (peptide)
peptide: YXQGTXTSDYSIFLDKKAQXAFIEYLLETGPSSGAPPPS
modifications: Aib at 2; αMeF at 6; Lys 17 side chain AEEAc-AEEAc-γGlu-CO(CH2)18COOH; Aib at 20; C-terminal amide (NH2)
Regarding B10, the “cAMP Rel. A (%) against human GIP” value in assay [1] came to 566%. Also, the “cAMP Rel. A (%) against human GCG” value in assay [2] was 110%. In assay [3], the “cAMP EC50, HEK-293 cells stably overexpressing human GLP-1 R” value amounted to 0.012 nM and the “cAMP Rel. A (%) … human GLP-1 R cells” value came to 367%.
